Test results from US20230167188A1 (BIOLOJIC DESIGN, published 2023).

T1: recombinant human TNFR2 with 6×his tag (human, UniProt P20333 23-257, limits assumed)
T1 construct: Bought (Reprokine, Israel); also called TNFR2-His; hTNFR2-His; not shown: 6xHis tag
T1 sequence (looked up): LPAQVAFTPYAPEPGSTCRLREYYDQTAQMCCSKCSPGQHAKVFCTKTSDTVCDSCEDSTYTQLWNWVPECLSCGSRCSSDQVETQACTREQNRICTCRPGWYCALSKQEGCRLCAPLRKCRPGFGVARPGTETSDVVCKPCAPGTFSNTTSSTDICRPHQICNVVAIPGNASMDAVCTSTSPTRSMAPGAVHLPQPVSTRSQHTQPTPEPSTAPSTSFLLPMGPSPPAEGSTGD

T2: human TNFR2 (residues 1-461) expressed on HEK-TNFR2 reporter cells (human, UniProt P20333 23-461)
T2 sequence (looked up): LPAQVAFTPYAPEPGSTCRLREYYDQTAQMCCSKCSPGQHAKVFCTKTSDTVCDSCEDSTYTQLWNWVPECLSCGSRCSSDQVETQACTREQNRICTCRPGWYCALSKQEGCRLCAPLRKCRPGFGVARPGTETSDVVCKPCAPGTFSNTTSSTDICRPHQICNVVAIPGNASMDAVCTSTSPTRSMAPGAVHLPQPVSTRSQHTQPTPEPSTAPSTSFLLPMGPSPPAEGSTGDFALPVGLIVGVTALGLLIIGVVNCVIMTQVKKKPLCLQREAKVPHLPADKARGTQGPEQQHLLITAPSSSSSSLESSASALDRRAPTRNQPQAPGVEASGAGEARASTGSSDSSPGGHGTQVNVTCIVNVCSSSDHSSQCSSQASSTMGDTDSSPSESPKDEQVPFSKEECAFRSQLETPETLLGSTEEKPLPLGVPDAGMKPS


Experiments:
[1] = molecular target: T1, recombinant human TNFR2 with 6×his tag; assay: ELISA, IgG coated, hTNFR2-His titrated, anti-His-HRP
Description: IgG binding affinity to TNFR2 was examined by ELISA. 96 well plates (Greiner Bio-One high binding) were coated with (50 ng/well) of the analyzed antibody and incubated overnight at 4° C. The plates were then washed three times with 300 μl PBS buffer containing 0.05% Tween 20 (PBS-T), blocked with 300μ PBS-T supplemented with 1% to 2% BSA, and incubated for 1 hour at room temperature. Antibodies-coated plates were washed three times with 300 μl PBS-T and incubated with serial dilutions of test ligand hTNFR2-His (Reprokine, Israel) in a final volume of […] for 1-2 hours. Plates were then washed three times with 300 μl PBS-T and incubated with 50 μl anti-HIS-HRP (Santa Cruz Biotechnology, USA, SC-8036HRP) conjugate that was diluted 1:250 in PBS. After an additional wash step of six washes, the reaction was developed with […] tetramethylbenzidine (TMB) reagent (Southern biotech, USA), and stopped with […] 0.5N H₂SO₄. Detection was done on a Synergy LX BioTek (BioTek, USA) plate reader with an absorbance filter set to […]. The binding affinity was determined by fitting the data to a specific binding non-linear regression model on Prisma 8 GraphPad software.
To test binding affinity of clones reformatted as IgG1 and IgG1LALA to TNFR2, an ELISA EC₅₀ binding experiment was conducted for each antibody.

[2] = molecular target: T2, human TNFR2 (residues 1-461) expressed …; assay: cell-based or functional assay
[3] = molecular target: T1, recombinant human TNFR2 with 6×his tag; assay: yeast surface display, TNFR2-His titrated, flow cytometry MFI
Description: To determine the effective concentration₅₀ (EC₅₀) of TNFR2 binding to yeast scFv or Fab clones (EC₅₀— TNFR2 binding), specific clones were labeled at TNFR concentrations ranging from 0.1 nM to 1000 nM and analyzed on an FACS. Median fluorescence intensity (MFI) was determined for each TNFR2 concentration and EC₅₀ (TNFR2 binding) was calculated using Prisma 8 GraphPad (GraphPad, San Diego, USA) software.

Row | Binder | EC50 [1] | Functional Agonism EC50 (nM), NFkB-SEAP reporter [2] | EC50 [3]
1 | BDG30.032 (antibody, human IgG1, kappa, Human IgG1; produced in HEK cells by Genscript; also called IgG of CID_436) heavy: not shown light: DIQMTQSPILLSASVGDRVTITCRASQDVSTAVAWSQQRTNGSPRLLIYSASSLYSGVPSRFSGSRSGTDFTLTISSLQPEDIADYYCQQPTYTPPTFGAGTKVEIKRTVAAPSVFIFPPSDEQLKSGTASVVCLLNNFYPREAKVQWKVDNALQSGNSQESVTEQDSKDSTYSLSSTLTLSKADYEKHKVYACEVTHQGLSSPVTKSFNRGEC | 21.9 nM | 0.85 nM | 
2 | BDG30.081 (antibody, human IgG1, kappa, V domains shown, Human IgG1; also called IgG of CID_231) VH: EVQLVESGGGLVQPGGSLRLSCAASGFNIRATYIHWVRQSPGKGLEWVADISPDNGDTRYADSVKGRFTISADTSKNTAYLQMNSLRAEDTAIYYCSRDLADGYNAFDLWGQGTLVTVSS VL: DIQMTQSPILLSASVGDRVTITCRASQDVSTAVAWSQQRTNGSPRLLIYSASSLYSGVPSRFSGSRSGTDFTLTISSLQPEDIADYYCQQHGYTPPTFGAGTKVEIKR | 50.7 nM |  | 
3 | BDG30.084 (antibody, human IgG1, kappa, V domains shown, Human IgG1; also called IgG of CID_234) VH: EVQLVESGGGLVQPGGSLRLSCAASGFNIRAFYIHWVRQSPGKGLEWVADIDPTNGDTRYADSVKGRFTISADTSKNTAYLQMNSLRAEDTAIYYCTREGEDGYNAFDQWGQGTLVTVSS VL: DIQMTQSPILLSASVGDRVTITCRASQDVSTAVAWYQQRTNGSPRLLIYPASSLYSGVPSRFSGSRSGTDFTLTISSLQPEDIADYYCQQPRYTPPTFGAGTKVEIKR | 58.9 nM |  | 
4 | BDG30.113 (antibody, human IgG1, kappa, L234A L235A, V domains shown, Human IgG1(L234A/L235A); also called IgG of CID_327) VH: EVQLVQSGPELKKPGASVKVSCKGSGYTFTDLGMGWVRQAPGQGLEWMGWINTQTGEPFYADDFKGRFVFSLDTSVSTAYLQISSLKAEDTAVYYCTRDHPLGLDYWGQGTLVTVSS VL: DIQVTQSPSSLSASVGDRVTITCITSQSVDVAGVSYLNWYQQKPGKVPKFLIHKASNLRSGVPSRFSGSGSGTDFTLTISSLQPEDVATYYCQQAREDPYTFGQGTKVEIKR | 2.5 nM | 3.8 nM | 
5 | BDG30.114 (antibody, human IgG1, kappa, L234A L235A, V domains shown, Human IgG1(L234A/L235A); also called IgG of CID_328) VH: EVQLVQSGPELKKPGASVKVSCKGSGYTFTDLGMNWVRQAPGQGLEWMGWINTQTGEPFYADDFKGRFVFSLDTSVSTAYLQISSLKAEDTAVYFCARDHPLGLDYWGQGTLVTVSS VL: DIQVTQSPSSLSASVGDRVTITCITSQSVDVNGVSYLNWYQQKPGKVPKFLIYKASILRSGVPSRFSGSGSGTDFTLTISSLQPEDVATYYCQQSREDPYTFGQGTKVEIKR | 2.2 nM | 6.4 nM | 
6 | BDG30.086 (antibody, human IgG1, kappa, Human IgG1; also called IgG of CID_262) heavy: not shown light: DIQMTQSPSSLSASVGDRVTITCRASQDISTAVAWSQQKPGKAPKLLIYPASSLYSGVPSRFSGSRSGTDFTLTISSLQPEDFATYYCQQHPYTPPTFGQGTKVEIKRTVAAPSVFIFPPSDEQLKSGTASVVCLLNNFYPREAKVQWKVDNALQSGNSQESVTEQDSKDSTYSLSSTLTLSKADYEKHKVYACEVTHQGLSSPVTKSFNRGEC | 8.1 nM | 1.4 nM | 
7 | BDG30.085 (antibody, human IgG1, kappa, Human IgG1; also called IgG of CID_261) heavy: not shown light: DIQMTQSPSSLSASVGDRVTITCRASQDISTAVAWSQQKPGKAPKLLIYSASSLYSGVPSRFSGSRSGTDFTLTISSLQPEDFATYYCQQPSLTPPTFGQGTKVEIKRTVAAPSVFIFPPSDEQLKSGTASVVCLLNNFYPREAKVQWKVDNALQSGNSQESVTEQDSKDSTYSLSSTLTLSKADYEKHKVYACEVTHQGLSSPVTKSFNRGEC | 4.3 nM | 24.7 nM | 
8 | BDG30.087 (antibody, human IgG1, kappa, Human IgG1; also called IgG of CID_264) heavy: not shown light: DIQMTQSPSSLSASVGDRVTITCRASQDVSTAVAWSQQKPGKAPKLLIYPASSLYSGVPSRFSGSRSGTDFTLTISSLQPEDFATYYCQQPTLTPPTFGQGTKVEIKRTVAAPSVFIFPPSDEQLKSGTASVVCLLNNFYPREAKVQWKVDNALQSGNSQESVTEQDSKDSTYSLSSTLTLSKADYEKHKVYACEVTHQGLSSPVTKSFNRGEC | 18.4 nM | 3.9 nM | 
9 | BDG30.088 (antibody, human IgG1, kappa, Human IgG1; also called IgG of CID_266) heavy: not shown light: DIQMTQSPSSLSASVGDRVTITCRASQDVSTAVAWYQQKPGKAPKLLIYPASSLYSGVPSRFSGSRSGTDFTLTISSLQPEDFATYYCQQPGYTPPTFGQGTKVEIKRTVAAPSVFIFPPSDEQLKSGTASVVCLLNNFYPREAKVQWKVDNALQSGNSQESVTEQDSKDSTYSLSSTLTLSKADYEKHKVYACEVTHQGLSSPVTKSFNRGEC | 13.1 nM | 49 nM | 
10 | BDG30.089 (antibody, human IgG1, kappa, V domains shown, Human IgG1; also called IgG of CID_267) VH: EVQLVESGGGLVQPGGSLRLSCAASGFNIRDYYIHWVRQAPGKGLEWVADIDPTNGDTRYADSVKGRFTISADTSKNTAYLQMNSLRAEDTAVYYCSREGQDGYNAWDLWGQGTLVTVSS VL: DIQMTQSPSSLSASVGDRVTITCRASQDVSTAVAWYQQKPGKAPKLLIYPASSLYSGVPSRFSGSRSGTDFTLTISSLQPEDFATYYCQQHPYTPPTFGQGTKVEIKR | 50.4 nM |  | 
11 | BDG30.116 (antibody, human IgG1, kappa, L234A L235A, Human IgG1(L234A/L235A); also called IgG of CID_262) heavy: not shown light: DIQMTQSPSSLSASVGDRVTITCRASQDISTAVAWSQQKPGKAPKLLIYPASSLYSGVPSRFSGSRSGTDFTLTISSLQPEDFATYYCQQHPYTPPTFGQGTKVEIKRTVAAPSVFIFPPSDEQLKSGTASVVCLLNNFYPREAKVQWKVDNALQSGNSQESVTEQDSKDSTYSLSSTLTLSKADYEKHKVYACEVTHQGLSSPVTKSFNRGEC | 5.1 nM | 3 nM | 
12 | BDG30.115 (antibody, human IgG1, kappa, L234A L235A) heavy: not shown light: DIQMTQSPILLSASVGDRVTITCRASQDVSTAVAWSQQRTNGSPRLLIYSASSLYSGVPSRFSGSRSGTDFTLTISSLQPEDIADYYCQQPTYTPPTFGAGTKVEIKRTVAAPSVFIFPPSDEQLKSGTASVVCLLNNFYPREAKVQWKVDNALQSGNSQESVTEQDSKDSTYSLSSTLTLSKADYEKHKVYACEVTHQGLSSPVTKSFNRGEC |  | 1 nM | 
13 | BDG30.202 (antibody, human IgG1, kappa, L234A L235A) heavy: not shown light: DIQMTQSPSSLSASVGDRVTITCRASQDISTAVAWSQQKPGKAPKLLIYSASSLYSGVPSRFSGSRSGTDFTLTISSLQPEDFATYYCQQPSLTPPTFGQGTKVEIKRTVAAPSVFIFPPSDEQLKSGTASVVCLLNNFYPREAKVQWKVDNALQSGNSQESVTEQDSKDSTYSLSSTLTLSKADYEKHKVYACEVTHQGLSSPVTKSFNRGEC |  | 2.9 nM | 
14 | BDG30.203 (antibody, human IgG1, kappa, L234A L235A) heavy: not shown light: DIQMTQSPSSLSASVGDRVTITCRASQDVSTAVAWSQQKPGKAPKLLIYPASSLYSGVPSRFSGSRSGTDFTLTISSLQPEDFATYYCQQPTLTPPTFGQGTKVEIKRTVAAPSVFIFPPSDEQLKSGTASVVCLLNNFYPREAKVQWKVDNALQSGNSQESVTEQDSKDSTYSLSSTLTLSKADYEKHKVYACEVTHQGLSSPVTKSFNRGEC |  | 0.5 nM | 
15 | BDG30.204 (antibody, human IgG1, kappa, L234A L235A) heavy: not shown light: DIQMTQSPSSLSASVGDRVTITCRASQDVSTAVAWYQQKPGKAPKLLIYPASSLYSGVPSRFSGSRSGTDFTLTISSLQPEDFATYYCQQPGYTPPTFGQGTKVEIKRTVAAPSVFIFPPSDEQLKSGTASVVCLLNNFYPREAKVQWKVDNALQSGNSQESVTEQDSKDSTYSLSSTLTLSKADYEKHKVYACEVTHQGLSSPVTKSFNRGEC |  | 3.1 nM | 
16 | CID_324 (scFv) scFv: EVQLVQSGPELKKPGASVKVSCKGSGYTFTDLGINWVRQAPGQGLEWMGWINTHTGEPFYADDFKGRFVFSLDTSVSTAYLQISSLKAEDTAVYYCTRDHPLGLDYWGQGTLVTVSSDIQVTQSPSSLSASVGDRVTITCITSQSVDVNGVSYLNWYQQKPGKVPKFLIYKASRLRSGVPSRFSGSGSGTDFTLTISSLQPEDVATYYCQQSREDPYTFGQGTKVEIK |  |  | 5.6 nM
